In PMC4941522:

Experiments:
[1] = system: Sso10a2 (Sulfolobus solfataricus); assay: EMSA; conditions: TPM buffer conditions; data not shown; EMSA: TPM buffer II (composition not in the material), 69 nM DNA, 10 min, ~23 °C, 1% agarose 0.5x TBE; TPM: 100 mM or 20 mM NaCl
[2] = system: Sso10a1 (Sulfolobus solfataricus); assay: EMSA; conditions: TPM buffer conditions; data not shown; EMSA: TPM buffer II (composition not in the material), 69 nM DNA, 10 min, ~23 °C, 1% agarose 0.5x TBE; TPM: 100 mM or 20 mM NaCl

Substance 685 bp DNA substrate (TPM/EMSA) has a Kd [1] of 1 nM and a Kd [2] of 1 nM.
